Source: article PMC4063126

Target: DENV1 prM protein with H98A (dengue virus 1 (DENV1), FGA/NA d1d strain)
Experiment: co-IP

DENV1 E protein with H244A (natural protein)
co-IP at pH 6.0 as percent of that at pH 7.0: 33%
